From patent publication US20200199241A1 (Chugai, published 2020)
Where two headings read alike, the source gives them in different places.

Assays:
[1] = molecular target: T1, human FcRn (complex with human β2-microglobulin) (human, UniProt P61769 21-119, limits assumed); test: hFcRn KD, method not given
T1 construct: soluble human FcRn complexed with β2-microglobulin was used; also called hFcRn

human FcγRIIb [2] = molecular target: T2, human FcγRIIb (human, UniProt P31994 43-217, limits assumed); test: SPR, pH 7.4, antibody captured by Protein L
T2 construct: also called FcgRIIb; hFcgRIIb
T2 sequence: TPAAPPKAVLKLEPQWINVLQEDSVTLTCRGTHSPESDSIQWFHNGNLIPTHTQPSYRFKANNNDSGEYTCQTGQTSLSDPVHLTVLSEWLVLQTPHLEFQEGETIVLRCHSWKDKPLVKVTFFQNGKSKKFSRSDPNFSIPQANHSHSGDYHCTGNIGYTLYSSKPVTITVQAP

human FcγRIIa(R) = molecular target: T3, human FcγRIIa(R) (human, UniProt P12318 36-217); test: SPR, pH 7.4, antibody captured by Protein L
T3 construct: also called FcgRIIaR; hFcgRIIa(R)
T3 chain: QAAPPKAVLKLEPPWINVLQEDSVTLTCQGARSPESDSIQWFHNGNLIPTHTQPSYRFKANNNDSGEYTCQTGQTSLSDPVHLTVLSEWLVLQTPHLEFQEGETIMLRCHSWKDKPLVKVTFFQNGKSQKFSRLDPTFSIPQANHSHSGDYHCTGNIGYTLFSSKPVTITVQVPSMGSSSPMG

human FcγRIIb [3] = molecular target: T4, human FcγRIIb (human, UniProt P31994 43-217, limits assumed); test: SPR (Biacore); ratio against IgG1
T4 construct: also called FcγIIB
T4 sequence: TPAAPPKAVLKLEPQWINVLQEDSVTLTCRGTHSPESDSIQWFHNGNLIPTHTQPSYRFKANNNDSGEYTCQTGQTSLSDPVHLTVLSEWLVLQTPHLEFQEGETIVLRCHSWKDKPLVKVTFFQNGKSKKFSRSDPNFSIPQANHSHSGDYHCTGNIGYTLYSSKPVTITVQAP

human FcγRIIb [4] = molecular target: T4, human FcγRIIb; test: SPR (Biacore), binding amount relative to IL6R-BF648/IL6R-L = 100
human FcγRIIa type H [5] = molecular target: T5, human FcγRIIa type H (human, UniProt P12318 36-217); test: as above
T5 construct: also called FcγRIIaH; FcγRIIa(H)
T5 sequence: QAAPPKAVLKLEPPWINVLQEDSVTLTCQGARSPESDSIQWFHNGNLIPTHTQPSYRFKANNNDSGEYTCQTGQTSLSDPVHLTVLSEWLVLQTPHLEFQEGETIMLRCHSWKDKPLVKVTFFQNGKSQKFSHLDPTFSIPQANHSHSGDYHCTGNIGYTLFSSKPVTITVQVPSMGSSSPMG

human FcγRIIIa type V [6] = molecular target: T6, human FcγRIIIa type V (human, UniProt P08637 17-208, limits assumed); test: as above
T6 construct: also called FcγRIIIaV; FcγRIIIa(V)

human FcγRIIa type R [7] = molecular target: T7, human FcγRIIa type R (human, UniProt P12318 36-217); test: as above
T7 construct: also called FcγRIIaR; FcγRIIa(R)
T7 chain: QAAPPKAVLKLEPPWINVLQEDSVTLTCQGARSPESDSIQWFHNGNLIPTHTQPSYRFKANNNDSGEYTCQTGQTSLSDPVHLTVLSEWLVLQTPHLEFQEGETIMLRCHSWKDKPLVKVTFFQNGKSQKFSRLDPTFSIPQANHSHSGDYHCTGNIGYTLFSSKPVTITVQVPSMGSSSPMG

human FcγRIa [8] = molecular target: T8, human FcγRIa (human, UniProt P12314 16-292, limits assumed); test: as above
T8 construct: also called CD64

human FcγRIIb [9] = molecular target: T4, human FcγRIIb; test: SPR (Biacore); ratio against parent IL6R-F11/IL6R-L
human FcγRIIb [10] = molecular target: T4, human FcγRIIb; test: SPR (Biacore); KD for FcγRIIaR divided by KD for FcγRIIb of the same antibody
human FcγRIIb [11] = molecular target: T4, human FcγRIIb; test: SPR (Biacore), antibody captured, FcγR as analyte
human FcγRIIb [12] = molecular target: T4, human FcγRIIb; test: SPR (Biacore), antibody captured, FcγR as analyte; remark: listed apart in the source
human FcγRIIb [13] = molecular target: T4, human FcγRIIb; test: SPR (Biacore); ratio against IgG1; remark: listed apart in the source
human FcγRIIb [14] = molecular target: T4, human FcγRIIb; test: SPR (Biacore), antibody captured, FcγR as analyte; remark: listed apart in the source
human FcγRIIa type H [15] = molecular target: T5, human FcγRIIa type H; test: SPR (Biacore), antibody captured, FcγR as analyte
human FcγRIIIa type V [16] = molecular target: T6, human FcγRIIIa type V; test: SPR (Biacore), antibody captured, FcγR as analyte
human FcγRIIa type R [17] = molecular target: T7, human FcγRIIa type R; test: SPR (Biacore), antibody captured, FcγR as analyte
human FcγRIa [18] = molecular target: T8, human FcγRIa; test: SPR (Biacore), antibody captured, FcγR as analyte
human FcγRIIb [19] = molecular target: T4, human FcγRIIb; test: SPR (Biacore); KD for FcγRIIaH divided by KD for FcγRIIb of the same antibody

T6 sequence (P08637 other isoform, or with tags, fused parts or gaps limits assumed): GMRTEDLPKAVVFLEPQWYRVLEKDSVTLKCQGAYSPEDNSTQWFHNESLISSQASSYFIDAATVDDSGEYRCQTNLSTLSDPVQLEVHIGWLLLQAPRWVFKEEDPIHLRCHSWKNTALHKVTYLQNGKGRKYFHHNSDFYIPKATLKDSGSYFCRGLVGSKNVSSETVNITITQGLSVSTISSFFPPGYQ
T8 sequence (P12314 16-292 limits assumed): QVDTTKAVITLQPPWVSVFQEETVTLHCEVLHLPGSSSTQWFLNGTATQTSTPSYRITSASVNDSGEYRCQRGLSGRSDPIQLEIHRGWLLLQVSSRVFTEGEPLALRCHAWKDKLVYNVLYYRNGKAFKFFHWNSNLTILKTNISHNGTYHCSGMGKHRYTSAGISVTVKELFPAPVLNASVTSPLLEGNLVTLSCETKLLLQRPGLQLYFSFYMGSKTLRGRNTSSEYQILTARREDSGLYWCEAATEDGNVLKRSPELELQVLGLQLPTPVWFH
T1 sequence (chain, as listed by the source limits assumed, chain 1 of 2): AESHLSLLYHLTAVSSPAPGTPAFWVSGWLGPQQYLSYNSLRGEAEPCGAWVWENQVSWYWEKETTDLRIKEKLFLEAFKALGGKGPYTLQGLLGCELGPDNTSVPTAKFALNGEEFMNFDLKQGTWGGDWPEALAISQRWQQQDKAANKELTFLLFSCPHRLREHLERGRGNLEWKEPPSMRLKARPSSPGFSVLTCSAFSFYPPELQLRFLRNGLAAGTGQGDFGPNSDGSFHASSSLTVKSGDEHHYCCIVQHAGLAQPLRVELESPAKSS
T1 sequence (P61769 21-119 limits assumed, chain 2 of 2): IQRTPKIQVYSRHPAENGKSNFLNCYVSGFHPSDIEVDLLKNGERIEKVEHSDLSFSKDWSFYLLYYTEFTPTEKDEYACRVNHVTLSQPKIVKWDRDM

B1: antibody with heavy chain VH3-IgG1-FA6a (Heavy Chain A) (antibody)
heavy: QVQLQESGPGLVKPSETLSLTCAVSGHSISHDHAWSWVRQPPGEGLEWIGFISYSGITNYNPSLQGRVTISRDNSKNTLYLQMNSLRAEDTAVYYCARSLARTTAMDYWGEGTLVTVSSASTKGPSVFPLAPSSKSTSGGTAALGCLVKDYFPEPVTVSWNSGALTSGVHTFPAVLQSSGLYSLSSVVTVPSSSLGTQTYICNVNHKPSNTKVDKKVEPKSCDKTHTCPPCPAPELLGGPSVFLFPPKPKDVLYISRTPEVTCVVVDVSHEDPEVKFNWYVDGVEVHNAKTKPREEQYNSTYRVVSVLQPLHADWLNGKEYKCKVSNKALPAPIEKTISKAKGQPREPQVYTLPPSRKKLTKNQVSLTCLVKGFYPSDIAVEWESNGQPENNYKTTPPVLDSDGSFFLYSKLTVDKSRWQQGNVFSCSVMHEALHYHVTQKSLSLSP
light: not shown
notes: T250V/M252Y/T307Q/V308P/Q311A/D356K/E357K/N434Y/Y436V
Kd [1]: 11 nM

B2: VH3-IgG1-F652/L(WT)-CK (antibody)
heavy: QVQLQESGPGLVKPSETLSLTCAVSGHSISHDHAWSWVRQPPGEGLEWIGFISYSGITNYNPSLQGRVTISRDNSKNTLYLQMNSLRAEDTAVYYCARSLARTTAMDYWGEGTLVTVSSASTKGPSVFPLAPSSKSTSGGTAALGCLVKDYFPEPVTVSWNSGALTSGVHTFPAVLQSSGLYSLSSVVTVPSSSLGTQTYICNVNHKPSNTKVDKKVEPKSCDKTHTCPPCPAPELLGGDSVFLFPPKPKDTLYISRTPEVTCVVVDVSHEDPEVKFNWYVDGVEVHNAKTKPREEQYNSTYRVVSVLTVLHQDWLNGKEYKCKVSNKALPAPIEKTISKAKGQPREPQVYTLPPSRDELTKNQVSLTCLVKGFYPSDIAVEWESNGQPENNYKTTPPVLDSDGSFFLYSKLTVDKSRWQQGNVFSCSVMHEALHYHYTQKSLSLSP
light: not shown
notes: P238D in VH3-IgG1-F11; copies: 2 + 2
binding amount (human FcγRIIb [2]): 64 RU
binding amount (human FcγRIIa(R)): 9.1 RU

B3: IL6R-G1d/IL6R-L (antibody, human IgG1)
heavy: not shown
light: DIQMTQSPSSLSASVGDRVTITCRASQDISSYLNWYQQKPGKAPKLLIYYTSRLHSGVPSRFSGSGSGTDFTFTISSLQPEDIATYYCQQGNTLPYTFGQGTKVEIK
notes: Anti-human IL-6 receptor antibody with the G1d constant region (human IgG1 without the C-terminal Gly-Lys); also called IgG1; IgG1 (IL6R-G1d)
relative KD for FcγRIIb (KD for IgG1/KD for each variant) (human FcγRIIb [3]): 1
relative binding (human FcγRIIb [4]): 62
relative binding (human FcγRIIa type H [5]): 1670
relative binding (human FcγRIIIa type V [6]): 3350
relative binding (human FcγRIIa type R [7]): 650
relative binding (human FcγRIa [8]): 140
KD(IIb) of parent polypeptide/KD(IIb) of altered polypeptide (human FcγRIIb [9]): 2.6
KD(IIaR)/KD(IIb) (human FcγRIIb [10]): 0.4
Kd (human FcγRIIb [11]): 5300 nM
Kd (human FcγRIIb [12]): 5300 nM
relative KD for FcγRIIb (KD for IgG1/KD for each variant) (human FcγRIIb [13]): 1
Kd (human FcγRIIb [14]): 2600 nM
Kd (human FcγRIIa type H [15]): 670 nM
Kd (human FcγRIIIa type V [16]): 350 nM
Kd (human FcγRIIa type R [17]): 1000 nM
Kd (human FcγRIa [18]): 0.32 nM
KD(IIaH)/KD(IIb) (human FcγRIIb [19]): 0.3
